From paper PMC10418629, “Functional Study of Amorpha fruticosa WRKY20 Gene in Response to Drought Stress”

Molecular target: T1, GST-AfWRKY20 (Amorpha fruticosa, UniProt A0A8K1R274 1-585)
T1 sequence: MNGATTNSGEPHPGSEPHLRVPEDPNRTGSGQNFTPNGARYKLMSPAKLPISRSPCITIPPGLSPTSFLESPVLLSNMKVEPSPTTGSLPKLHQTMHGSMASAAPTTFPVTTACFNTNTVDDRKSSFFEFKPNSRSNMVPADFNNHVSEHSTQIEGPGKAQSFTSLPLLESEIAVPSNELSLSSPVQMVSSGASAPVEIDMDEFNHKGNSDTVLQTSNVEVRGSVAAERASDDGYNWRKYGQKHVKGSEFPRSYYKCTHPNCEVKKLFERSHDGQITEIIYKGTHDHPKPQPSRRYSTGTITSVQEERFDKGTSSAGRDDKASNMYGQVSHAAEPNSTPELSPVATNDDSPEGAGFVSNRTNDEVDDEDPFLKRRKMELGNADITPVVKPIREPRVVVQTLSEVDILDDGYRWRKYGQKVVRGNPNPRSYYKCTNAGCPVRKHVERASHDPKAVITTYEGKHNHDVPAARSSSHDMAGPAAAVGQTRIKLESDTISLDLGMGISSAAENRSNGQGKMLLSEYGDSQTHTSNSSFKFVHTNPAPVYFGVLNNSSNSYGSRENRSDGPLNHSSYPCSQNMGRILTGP
Assay: EMSA; unlabeled Cold-Pr competitor weakened the shift; EMSA kit (Biyuntian/Beyotime) per instructions; buffer, salt, pH and temperature not stated
Settings: protein: recombinant; tags: GST; blunt as designed; printed strands are not exact complements (F has GGAAC / GGGC, complement of R has GGAC / GGGGC; possible misprint)

B1: W-box probe (Biotin-Pr) (dsDNA)
DNA 1: GGAACTTGACCTTGACCTTAGGGCTGCAGGAATTCG
DNA 2: CGAATTCCTGCAGCCCCTAAGGTCAAGGTCAAGTCC
B1: binds.
